Key:
[1] = target: Ly49H (B6 allele), endogenous on splenic NK cells (mouse (endogenous in splenic NK cells)) (UniProt Q60682)
[2] = target: Ly49C^B6 expressed on BWZ.36 cells (BWZ-Ly49C) (mouse (B6)) (UniProt Q64329); assay: flow cytometry on cells; association time course: BWZ transfectants with saturating m157-Fc for 30 sec/1 min to 40 min at 4°C; MFI at 40 min = 100%
[3] = target: Ly49H^B6 expressed on BWZ.36 cells (BWZ-Ly49H) (mouse (B6)) (UniProt Q60682); assay: as above
[4] = target: Ly49C^B6 expressed on BWZ.36 cells (BWZ-Ly49C) (mouse (B6)) (UniProt Q64329); assay: flow cytometry on cells; dissociation: BWZ transfectants labelled with saturating m157-Fc at 4°C, washed, incubated at 37°C for 5 to 90 min with excess anti-m157 antibody 6H121 to prevent re-binding; MFI at 0 min = 100%
[5] = target: Ly49H^B6 expressed on BWZ.36 cells (BWZ-Ly49H) (mouse (B6)) (UniProt Q60682); assay: as above

UniProt Q64329, sequence (Q64329 whole entry): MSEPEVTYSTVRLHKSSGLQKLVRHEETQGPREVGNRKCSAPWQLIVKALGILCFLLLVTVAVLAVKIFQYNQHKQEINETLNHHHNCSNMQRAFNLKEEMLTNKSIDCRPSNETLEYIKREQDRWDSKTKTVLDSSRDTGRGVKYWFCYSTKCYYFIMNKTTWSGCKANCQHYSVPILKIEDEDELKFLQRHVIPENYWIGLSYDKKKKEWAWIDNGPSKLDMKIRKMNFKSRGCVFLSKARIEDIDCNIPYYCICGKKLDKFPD

m157^G1F-Fc soluble fusion protein (Fc fusion)
IFN-γ production of Ly49H^+,C^- B6 NK cells exposed to RMA cells expressing m157^G1F; abolished by blocking anti-Ly49H 3D10 [1]: 15 % IFN-γ^+ | degranulation (LAMP1^+) of Ly49H^+,C^- B6 NK cells exposed to RMA cells expressing m157^G1F; abolished by blocking anti-Ly49H 3D10 [1]: 40 % LAMP1^+ | time to 50% of maximal binding [2]: 5 min | time to 50% of maximal binding [3]: 7 min | time to 50% dissociation [4]: 20 min | percent still bound after 90 min [5]: > 50%
